Assay results as given in patent US10273304B2, “Biomarker profiles for predicting outcomes of cancer therapy with ERBB3 inhibitors and/or chemotherapies” (Merrimack Pharmaceuticals, Inc., priority 2013, dated 2019).

What was measured:
[1] = tested on: EGFR-wild-type non-small cell lung cancer (NSCLC)
Description: A group participating in the study was comprised of 132 patients with wild-type epidermal growth factor receptor (EGFR) who progressed on ≥1 platinum-based standard of care therapy and were EGFR tyrosine kinase inhibitor (TKI)-naïve. […] Data were collected at 10+ months.
Therefore, in this Example, Biomarker positive (BM+) is used interchangeably with Heregulin positive (HRG+). BM+ patients were defined as having detectable HRG mRNA by RNA-ISH (RNA in situ hybridization) as described above in Example 1.

[2] = tested on: locally advanced or metastatic ER+ and/or PR+, HER2 negative breast cancer; experiment: Randomized, double-blind phase 2 trial of exemestane +/- MM-121, breast cancer; assay type: in vivo, human
[3] = tested on: advanced, platinum-resistant ovarian cancer; experiment: Clinical trial, ovarian cancer: paclitaxel with or without MM-121; assay type: in vivo, human; conditions: for HR (PFS, treatment vs control): paclitaxel+MM-121 vs paclitaxel, data at 60 weeks
Method: A clinical trial was performed that was designed to allow, inter alia, determination of associations between biomarker profiles and clinical responses. Biomarker data were measured in pre-treatment biopsies and (when available) in archived tumor samples. Results pertaining to predictive biomarkers measured in pre-treatment biopsies are described herein.
Four types of assay (each set forth above) were used to assess the six primary biomarkers assessed in this study (EGFR, ErbB2, ErbB3, ErbB4, HRG and BTC):
In total, six primary biomarkers were measured using 15 assays. For the 5 chromogenic assays (qIHC and RNA-ISH), two different overall scores were used: composite score and top-10 score. Accordingly, 20 different variables were assessed at this stage. A Cox proportional hazard model was used to rank the biomarkers. This method determines if PFS varies with biomarker values differently in the treatment arm relative to the control arm. A P-value cutoff of 0.4 was used to determine which biomarkers would be prioritized for subsequent bivariate analyses.
Based on these two thresholds, a biomarker profile positive (BM+) subpopulation is defined for subsequent analyses as: (ErbB2 levels ≤log10 5.1) AND (HRG score ≥1) (“ErbB2 low” AND “HRG positive”). Accordingly, a biomarker profile negative (BM−) subpopulation is defined as (ErbB2 levels >log10 5.1) OR (HRG score <1) This definition results in a BM+prevalence of 34% in the clinical trial population.
In FIG. 8G (progression free survival at 10+ months) and FIG. 8H (overall survival at 10+ months), the treatment arm is represented by a blue line and the control arm is represented by a black line.

[4] = biological target: ErbB3 (Homo sapiens, UniProt P21860); experiment: Pre-clinical data and computational modeling: MM-121 potency versus ErbB2 level; conditions: when ErbB2 levels rise above about 100,000 to about 200,000 receptors per cell
[5] = BM+ (heregulin+) patients, FIG. 11
[6] = group ErbB2 < 5.1 (qIHC) & HRG > -5

Molecule: C#Cc1cccc(Nc2ncnc3cc(OCCOC)c(OCCOC)cc23)c1 [erlotinib]
- best overall response: complete response (CR) [1, 5]: none
- best overall response: partial response (PR) [1, 5]: 6.7%
- best overall response: progressive disease (PD) [1, 5]: 53.3%
- PFS of BM- (heregulin-) patients compared with BM+ (heregulin+) patients ([1]; patients treated with erlotinib alone, FIG. 12C): much longer PFS

Molecule: C=C1C[C@@H]2[C@H](CC[C@]3(C)C(=O)CC[C@@H]23)[C@@]2(C)C=CC(=O)C=C12 [exemestane, 6-methylenandrosta-1,4-diene-3,17-dione, reference compound]
- PFS of BM- (heregulin-) patients compared with BM+ (heregulin+) patients ([2]; patients treated with exemestane alone, FIG. 10E): much longer PFS

Molecule: CC(=O)O[C@H]1C(=O)[C@@]2(C)[C@H]([C@H](OC(=O)c3ccccc3)[C@]3(O)C[C@H](OC(=O)[C@H](O)[C@@H](NC(=O)c4ccccc4)c4ccccc4)C(C)=C1C3(C)C)[C@]1(OC(C)=O)CO[C@@H]1C[C@@H]2O [paclitaxel, Paclitaxel, reference compound]
- PFS of BM- (heregulin-) patients compared with BM+ (heregulin+) patients ([3]; patients treated with paclitaxel alone, FIG. 8I): much longer PFS

B1: MM-121: anti-ErbB3 monoclonal antibody having VH and VL sequences as shown in SEQ ID NOs: 1 and 2 (antibody, V domains shown)
VH: EVQLLESGGGLVQPGGSLRLSCAASGFTFSHYVMAWVRQAPGKGLEWVSSISSSGGWTLYADSVKGRFTISRDNSKNTLYLQMNSLRAEDTAVYYCTRGLKMATIFDYWGQGTLVTVSS
VL: QSALTQPASVSGSPGQSITISCTGTSSDVGSYNVVSWYQQHPGKAPKLIIYEVSQRPSGVSNRFSGSKSGNTASLTISGLQTEDEADYYCCSYAGSSIFVIFGGGTKVTVL
- HR (trt:ctrl) ([3]; BM+ (HER2 low & HRG+), subgroup ErbB4 score 0): 0.13
- HR (trt:ctrl) ([3]; BM+, subgroup ErbB4 score >=1): 0.65
- HR (trt:ctrl) ([3]; BM- (HER2 low & HRG+ not met), subgroup ErbB4 score 0): 1.05
- HR (trt:ctrl) ([3]; BM-, subgroup ErbB3 score >=2): 0.86
- cumulative HR ([3]; all patients with BM measurements, prevalence=100%): ≈ 1
- HR (PFS, treatment vs control) ([3]; BM+ subpopulation (ErbB2 <=log10 5.1 AND HRG score >=1)): 0.37
- HR (PFS, treatment vs control) ([3]; BM- subpopulation (ErbB2 >log10 5.1 OR HRG score <1)): 1.54
- estimated HR in the BM+ group, sensitivity analysis ([2]; Cox model with additive terms for treatment, biomarker groups and clinical covariates): 0.38
- HR, BM population ([2]; MM-121+exemestane vs exemestane, no selection, N=115): 0.75
- HR, BM negative ([2]; group ErbB2 < 5.1 (HCT)): 3.00
- HR, BM population ([2]; group ErbB2 < 5.1 (HCT)): 0.82
- HR, BM positive ([2]; group ErbB2 < 5.1 (HCT)): 0.62
- HR, BM population ([2]; group ErbB2 < 5.1 (HCT) & HRG > -5, 55 patients): 0.66
- HR, BM positive ([2]; group ErbB2 < 5.1 (HCT) & HRG > -5, PFS at about 60 weeks, N=17): 0.32
- HR, BM negative ([2]; group ErbB2 < 5.1 (HCT) & HRG > -5, PFS at about 60 weeks, N=38): 0.89
- HR, BM negative ([2]; group ErbB2 < 5.1 (qIHC)): 3.00
- HR, BM population ([2]; group ErbB2 < 5.1 (qIHC)): 1.16
- HR, BM positive ([2]; group ErbB2 < 5.1 (qIHC)): 0.84
- HR, BM negative [2, 6]: 1.30
- HR, BM population [2, 6]: 0.86
- HR, BM positive [2, 6]: 0.32
- HR, BM negative ([2]; group HRG > -5): 0.99
- HR, BM positive ([2]; group HRG > -5): 0.35
- HR, BM population ([2]; group HRG > -5 (RT-PCR), all patients with this biomarker): 0.68
- potency as a function of ErbB2 level [4]: loses potency
